Assay results taken from US11419921B2, “Methods of treating neurological disorders” (EnClear Therapies, Inc., priority 2018, dated 2022).

Assays:
(GR)10 [1] = assay: (GR)10 digestion with immobilized proteases (NHS-activated agarose resin) in PBS; assay type: biochemical; details: normalized
Method: (§1) Protease solutions were prepared at 2 mg/mL in sterile PBS with calcium, magnesium and 200 μL ([…]) were applied to 100 μL of pre-washed NHS-activated agarose resin in 0.8 mL centrifuge columns. Reactions were left 1.5 hour at room temperature with end-to-end mixing, after which resins were washed with 12 resin volumes of PBS. Unreacted sites were blocked with 500 μL of 1M ethanolamine for 15 minutes at room temperature and resins were further washed with 24 resin volumes. Resins were stored at 4 degrees in 500 μL of PBS containing 0.05% sodium azide as preservative.
110 μL of 50 μM (GR)10 dipeptide repeats prepared in PBS were added to each immobilized protease and incubated 5 minutes at room temperature with end-to-end mixing. Columns were spun down 1 minute at 1,000 Xg to recover digested GR dipeptides. Columns were washed with 110 μL of PBS to increase (GR)10 recovery. This procedure was repeated with 60 minutes digestion time. 100 μL of each samples were transferred to a new tube and 5 μL of 10% TFA followed by 300 μL of Dilution Solution were added. The reaction mixtures were analyzed by LC/MS to determine the concentration of GR repeats of different lengths.

(GR)10 [2] = assay: (GR)10 digestion with immobilized proteases in human cerebrospinal fluid (CSF); assay type: biochemical; details: immobilized enzyme
Method: as §1
200 μM of (GR)10 were diluted in human cerebrospinal fluid (CSF) and 400 μL were applied to each immobilized proteases. The reaction was incubated 5 minutes at room temperature with end-to-end mixing. Columns were spun down 1 minute at 1,000 Xg to recover digested GR dipeptides. Columns were washed with 12 resin volumes of PBS. The procedure was repeated with 60 minutes digestion time. 100 μL of each samples were transferred to a clean tube, flash-frozen and subsequently used for LC/MS quantification of GR repeats of different lengths. The remaining 300 μL of each samples were flash-frozen and used to assess neuron toxicity.
(GR)10 was digested with exemplary immobilized enzymes as described above in the subsection titled “(GR)10 digestion with immobilized proteases in CSF” of Example 3. Clostripain experiments were conducted with and without DTT activation (no DTT during digestion). The results obtained after 5 and 60 minutes of reaction time are presented in Table 25 and shown in FIG. 5 (commercial and in-house immobilized trypsin), FIG. 6 (immobilized elastase, FIG. 7A (immobilized clostripain without DTT) and FIG. 7 (immobilized clostripain with 2.5 mM DTT).

[3] = resin wash from 60 min reaction

B1: Trypsin: protease cleaving at the carboxyl side of lysine or arginine; in Table 21 also immobilized in-house on NHS-activated agarose resin (protein, UniProt P00760 24-246, looked up)
Serine protease 1: IVGGYTCGANTVPYQVSLNSGYHFCGGSLINSQWVVSAAHCYKSGIQVRLGEDNINVVEGNEQFISASKSIVHPSYNSNTLNNDIMLIKLKSAASLNSRVASISLPTSCASAGTQCLISGWGNTKSSGTSYPDVLKCLKAPILSDSSCKSAYPGQITSNMFCAGYLEGGKDSCQGDSGGPVVCSGKLQGIVSWGSGCAQKNKPGVYTKVCNYVSWIKQTIASN
6.6 µM: (GR)10 ((GR)10 [1]; resin wash from 5 min reaction)
144.6 µM: (GR)1 ((GR)10 [1]; [3])
308.8 µM: (GR)1 ((GR)10 [1]; Immobilized - 5 min reaction)
9.0 µM: (GR)2 (normalized uM) ((GR)10 [2]; 5 min reaction)
0.0 µM: (GR)2 ((GR)10 [1]; Immobilized - 5 min reaction) | (GR)3 ((GR)10 [1]; Immobilized - 5 min reaction) | (GR)4 ((GR)10 [1]; Immobilized - 5 min reaction) | (GR)5 ((GR)10 [1]; Immobilized - 5 min reaction) | (GR)6 ((GR)10 [1]; Immobilized - 5 min reaction) | (GR)8 ((GR)10 [1]; Immobilized - 5 min reaction) | (GR)10 ((GR)10 [1]; Immobilized - 5 min reaction) | (GR)2 ((GR)10 [1]; immobilized - 60 min reaction) | (GR)3 ((GR)10 [1]; immobilized - 60 min reaction) | (GR)4 ((GR)10 [1]; immobilized - 60 min reaction) | (GR)5 ((GR)10 [1]; immobilized - 60 min reaction) | (GR)6 ((GR)10 [1]; immobilized - 60 min reaction) | (GR)8 ((GR)10 [1]; immobilized - 60 min reaction) | (GR)10 ((GR)10 [1]; immobilized - 60 min reaction) | (GR)2 ((GR)10 [1]; resin wash from 5 min reaction) | (GR)3 ((GR)10 [1]; resin wash from 5 min reaction) | (GR)4 ((GR)10 [1]; resin wash from 5 min reaction) | (GR)5 ((GR)10 [1]; resin wash from 5 min reaction) | (GR)6 ((GR)10 [1]; resin wash from 5 min reaction) | (GR)8 ((GR)10 [1]; resin wash from 5 min reaction) | (GR)2 ((GR)10 [1]; [3]) | (GR)3 ((GR)10 [1]; [3]) | (GR)4 ((GR)10 [1]; [3]) | (GR)5 ((GR)10 [1]; [3]) | (GR)6 ((GR)10 [1]; [3]) | (GR)8 ((GR)10 [1]; [3]) | (GR)10 ((GR)10 [1]; [3]) | (GR)3 (normalized uM) ((GR)10 [2]; 5 min reaction) | (GR)4 (normalized uM) ((GR)10 [2]; 5 min reaction) | (GR)5 (normalized uM) ((GR)10 [2]; 5 min reaction) | (GR)6 (normalized uM) ((GR)10 [2]; 5 min reaction) | (GR)8 (normalized uM) ((GR)10 [2]; 5 min reaction) | (GR)10 (normalized uM) ((GR)10 [2]; 5 min reaction) | (GR)2 (normalized uM) ((GR)10 [2]; 60 min reaction) | (GR)3 (normalized uM) ((GR)10 [2]; 60 min reaction) | (GR)4 (normalized uM) ((GR)10 [2]; 60 min reaction) | (GR)5 (normalized uM) ((GR)10 [2]; 60 min reaction) | (GR)6 (normalized uM) ((GR)10 [2]; 60 min reaction) | (GR)8 (normalized uM) ((GR)10 [2]; 60 min reaction) | (GR)10 (normalized uM) ((GR)10 [2]; 60 min reaction)
140.2 µM: (GR)1 ((GR)10 [1]; resin wash from 5 min reaction)
1182.3 µM: (GR)1 (normalized uM) ((GR)10 [2]; 60 min reaction)
1153.4 µM: (GR)1 (normalized uM) ((GR)10 [2]; 5 min reaction)
321.8 µM: (GR)1 ((GR)10 [1]; immobilized - 60 min reaction)

B2: Clostripain: sulfhydryl protease cleaving at the C-terminus of arginine residues; in Table 23 also immobilized on agarose resin (protein)
chain: NKNQKVTIMYYCDADNNLEGSLLNDIEEMKTGYKDSPNLNLIALVDRSPRYSSDEKVLGEDFSDTRLYKIEHNKANRLDGKNEFPEISTTSKYEANMGDPEVLKKFIDYCKSNYEADKYVLIMANHGGGAREKSNPRLNRAICWDDSNLDKNGEADCLYMGEISDHLTEKQSVDLLAFDACLMGTAEVAYQYRPGNGGFSADTLVASSPVVWGPGFKYDKIFDRIKAGGGTNNEDDLTLGGKEQNFDPATITNEQLGALFVEEQRDSTHANGRYDQHLSFYDLKKAESVKRAIDNLAVNLSNENKKSEIEKLRGSGIHTDLMHYFDEYSEGEWVEYPYFDVYDLCEKINKSENFSSKTKDLASNAMNKLNEMIVYSFGDPSNNFKEGKNGLSIFLPNGDKKYSTYYTSTKIPHWTMQSWYNSIDTVKYGLNPYGKLSWCKDGQDPEINKVGNWFELLDSWFDKTNDVTGGVNHYQW
11.2 µM: (GR)1 (normalized uM) ((GR)10 [2]; 5 min reaction)
85.5 µM: (GR)5 (normalized uM) ((GR)10 [2]; 60 min reaction)
8.5 µM: (GR)5 (normalized uM) ((GR)10 [2]; 5 min reaction)
87 µM: (GR)6 (normalized uM) ((GR)10 [2]; 60 min reaction)
395 µM: (GR)10 (normalized uM) ((GR)10 [2]; 5 min reaction)
0 µM: (GR)10 (normalized uM) ((GR)10 [2]; 60 min reaction)
106.2 µM: (GR)1 (normalized uM) ((GR)10 [2]; 60 min reaction)
99.2 µM: (GR)2 (normalized uM) ((GR)10 [2]; 60 min reaction)
0.0 µM: (GR)2 ((GR)10 [1]; Immobilized - 5 min reaction) | (GR)3 ((GR)10 [1]; Immobilized - 5 min reaction) | (GR)4 ((GR)10 [1]; Immobilized - 5 min reaction) | (GR)5 ((GR)10 [1]; Immobilized - 5 min reaction) | (GR)6 ((GR)10 [1]; Immobilized - 5 min reaction) | (GR)8 ((GR)10 [1]; Immobilized - 5 min reaction) | (GR)10 ((GR)10 [1]; Immobilized - 5 min reaction) | (GR)2 ((GR)10 [1]; immobilized - 60 min reaction) | (GR)3 ((GR)10 [1]; immobilized - 60 min reaction) | (GR)4 ((GR)10 [1]; immobilized - 60 min reaction) | (GR)5 ((GR)10 [1]; immobilized - 60 min reaction) | (GR)6 ((GR)10 [1]; immobilized - 60 min reaction) | (GR)8 ((GR)10 [1]; immobilized - 60 min reaction) | (GR)10 ((GR)10 [1]; immobilized - 60 min reaction) | (GR)2 ((GR)10 [1]; resin wash from 5 min reaction) | (GR)3 ((GR)10 [1]; resin wash from 5 min reaction) | (GR)4 ((GR)10 [1]; resin wash from 5 min reaction) | (GR)5 ((GR)10 [1]; resin wash from 5 min reaction) | (GR)6 ((GR)10 [1]; resin wash from 5 min reaction) | (GR)8 ((GR)10 [1]; resin wash from 5 min reaction) | (GR)10 ((GR)10 [1]; resin wash from 5 min reaction) | (GR)2 ((GR)10 [1]; [3]) | (GR)3 ((GR)10 [1]; [3]) | (GR)4 ((GR)10 [1]; [3]) | (GR)5 ((GR)10 [1]; [3]) | (GR)6 ((GR)10 [1]; [3]) | (GR)8 ((GR)10 [1]; [3]) | (GR)10 ((GR)10 [1]; [3]) | (GR)3 (normalized uM) ((GR)10 [2]; 5 min reaction) | (GR)4 (normalized uM) ((GR)10 [2]; 5 min reaction) | (GR)6 (normalized uM) ((GR)10 [2]; 5 min reaction) | (GR)8 (normalized uM) ((GR)10 [2]; 5 min reaction)
140.2 µM: (GR)1 ((GR)10 [1]; resin wash from 5 min reaction)
72.3 µM: (GR)3 (normalized uM) ((GR)10 [2]; 60 min reaction)
155.8 µM: (GR)1 ((GR)10 [1]; [3])
84.7 µM: (GR)4 (normalized uM) ((GR)10 [2]; 60 min reaction)
296.5 µM: (GR)1 ((GR)10 [1]; Immobilized - 5 min reaction)
58.4 µM: (GR)8 (normalized uM) ((GR)10 [2]; 60 min reaction)
10.0 µM: (GR)2 (normalized uM) ((GR)10 [2]; 5 min reaction)
305.9 µM: (GR)1 ((GR)10 [1]; immobilized - 60 min reaction)
